Substrate in the series: CC(=O)Oc1ccc([N+](=O)[O-])cc1
Put plainly: 4-nitrophenol release, Lineweaver-Burk plot. The conditions noted are these: pH 7, 40 °C, pNPA 0.2-2 mM. Format: biochemical, Penicillium chrysogenum.

The record followed here is PMC5615437, “A novel bifunctional acetyl xylan esterase/arabinofuranosidase from Penicillium chrysogenum P33 enhances enzymatic hydrolysis of lignocellulose” (Microbial Cell Factories, 2017).

B1: rPcAxe (Penicillium chrysogenum) (protein)
chain: AASSGCGKQPTLTNGVHTINGRQYILKVPDNYDSNKPHHLVFGLHWRGGNMNSVANGDSIQPWYGLESRAQGSAILVSPDGKNAGWANTNGEDVALIDAIIQQVEGDLCVDSSSRFATGFSWGGGMSYALACSRAKEFKAVSVLSGGLISGCEGGYDPIAYLGIHGIDDQVLPIDEGVTLANKFVGNNKCQPTNIGKPASGSGGFVRSDFQGCSKPVSFIAYDGGHVGAPLGVGSSLAPDATWEFFMAA
In general, Km refers to the substrate concentration at which the rate is half of its maximum. Turning to B1, the Km amounted to 465 µM.
